The target of data set [1] is T1, PpFAAH1 (Physcomitrium patens, UniProt A0A7I4CIU2).
T1 construct: full length cDNA in pDEST15 (GST tag), E. coli BL21(DE3), GST column, tag removal not mentioned; cloning primers translate to N-terminus MAQNKMR and C-terminus FYNILK; catalytic triad K202, S278, S302
T1 sequence (A0A7I4CIU2 1-601): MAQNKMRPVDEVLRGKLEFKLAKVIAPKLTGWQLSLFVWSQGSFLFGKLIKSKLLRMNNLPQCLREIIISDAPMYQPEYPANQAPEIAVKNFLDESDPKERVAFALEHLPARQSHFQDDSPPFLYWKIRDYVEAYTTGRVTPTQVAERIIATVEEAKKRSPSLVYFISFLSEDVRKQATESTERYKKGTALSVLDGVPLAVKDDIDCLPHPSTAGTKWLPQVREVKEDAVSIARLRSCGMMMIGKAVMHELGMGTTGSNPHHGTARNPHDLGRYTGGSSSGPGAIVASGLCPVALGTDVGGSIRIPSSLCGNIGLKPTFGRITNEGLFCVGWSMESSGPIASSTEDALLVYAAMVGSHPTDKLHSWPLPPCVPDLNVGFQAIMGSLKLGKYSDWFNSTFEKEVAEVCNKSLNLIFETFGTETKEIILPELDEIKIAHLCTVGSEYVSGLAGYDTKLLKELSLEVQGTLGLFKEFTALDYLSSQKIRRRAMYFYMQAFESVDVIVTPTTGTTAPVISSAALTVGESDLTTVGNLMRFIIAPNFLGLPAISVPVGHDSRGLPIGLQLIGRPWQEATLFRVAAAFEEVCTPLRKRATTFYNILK
Nature of the data set: radiolabeled amidohydrolase assay, TLC with radiometric scanner, […] min preincubation with inhibitor. Format: biochemical. As to conditions: read-out: % inhibition at 10 nM.

Substrate in data set [2]: CCCCC/C=C\C/C=C\C/C=C\C/C=C\CCCC(=O)NCCO
Nature of the data set: radiolabeled amidohydrolase assay, TLC with radiometric scanner. Format: biochemical, Physcomitrium patens. As to conditions: pH 8.0, 37 °C, labelled compound ([1-14C]). Here is the method: radiolabeled amidohydrolase assay, TLC with radiometric scanner on PpFAAH1 | The kinetic parameters, Km and Vmax for PpFAAH1 with anandamide as a substrate were determined

We go through two molecules from paper PMC7033180, “An endocannabinoid catabolic enzyme FAAH and its paralogs in an early land plant reveal evolutionary and functional relationship with eukaryotic orthologs” (Scientific Reports, 2020).

The term inhibition denotes the share of the control response that was lost under treatment. For the molecule `NC(=O)c1cccc(-c2cccc(OC(=O)NC3CCCCC3)c2)c1` [URB597, [3-(3-carbamoylphenyl)phenyl] N-cyclohexyl carbamate], in data set [1], the inhibition at 0.01 µM worked out at 20%.

B1: PpFAAH1 (Physcomitrium patens) (protein)
chain: T1 sequence (A0A7I4CIU2 1-601)
notes: full length cDNA in pDEST15 (GST tag), E. coli BL21(DE3), GST column, tag removal not mentioned; cloning primers translate to N-terminus MAQNKMR and C-terminus FYNILK; catalytic triad K202, S278, S302
Broadly, the Km is the substrate concentration at which the rate is half of its maximum. For B1, in data set [2], the Km was 2.3 µM and the kcat is reported as 1.4 S^−1.
